Measurements taken from patent US20250282869A1 (Amgen, published 2025).

What was measured:
[1] = target: T1, CD3ε (aa 1-27)-chicken albumin fusion protein, human (human; chicken, UniProt P07766 22-48); experiment: SPR, CD3ε (aa 1-27)-chicken albumin immobilized on CM5 chip, construct in solution
T1 construct: range 1-27; Immobilized on CM5 sensor chips; The order of the parts follows the printed name; also called Human CD3; CD3E fusion protein; not shown: chicken albumin
Protocol: CD3 binding affinity was evaluated using surface plasmon resonance. A CD3E fusion protein (CD3ε (aa 1-27)-chicken albumin) was immobilized on CM5 Sensor Chips in the presence of a sodium acetate buffer (pH 4.5). The DLL3 multichain TCE proteins described above diluted in HBS-EP buffer were applied at different concentrations to determine the molecule association rates with CD3ε. HBP-EP buffer alone was then added to allow analysis of the molecule dissociation rates.

cynomolgus monkey DLL3 [2] = target: T2, cynomolgus monkey DLL3 (cynomolgus monkey, UniProt A0A2K5WSR1 27-584); experiment: flow cytometry, on-cell binding to CHO cells stably expressing cynomolgus monkey DLL3, anti-Fc detection
T2 construct: whole, on cells; also called cyno DLL3
T2 sequence: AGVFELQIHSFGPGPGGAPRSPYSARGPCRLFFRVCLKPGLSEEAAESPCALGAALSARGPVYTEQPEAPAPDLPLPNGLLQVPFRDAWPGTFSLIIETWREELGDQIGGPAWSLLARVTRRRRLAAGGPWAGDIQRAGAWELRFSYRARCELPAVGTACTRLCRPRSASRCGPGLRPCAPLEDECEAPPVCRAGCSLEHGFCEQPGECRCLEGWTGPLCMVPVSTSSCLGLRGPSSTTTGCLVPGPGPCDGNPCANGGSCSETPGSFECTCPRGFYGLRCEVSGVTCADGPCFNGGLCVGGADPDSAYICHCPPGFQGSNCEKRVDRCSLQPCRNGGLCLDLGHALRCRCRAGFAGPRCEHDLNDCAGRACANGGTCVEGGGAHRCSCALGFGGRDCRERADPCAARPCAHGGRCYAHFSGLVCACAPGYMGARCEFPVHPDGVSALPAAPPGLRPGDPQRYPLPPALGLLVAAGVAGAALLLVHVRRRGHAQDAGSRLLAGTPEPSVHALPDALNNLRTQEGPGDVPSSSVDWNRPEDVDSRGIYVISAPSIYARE
Protocol: (§1) In particular, on-cell binding affinity for DLL3 was evaluated using Chinese Hamster Ovary (CHO) cells engineered to stably express either human or cynomolgus monkey DLL3. The engineered CHO cells were incubated with DLL3 multichain TCE proteins comprising two different DLL3-binders (“DLL3_1” or “DLL3_2”) for 4 hours at 4° C. in buffer (phosphate buffered saline with 1% fetal bovine serum). After incubation, the cells were washed in buffer, and then bound DLL3 multichain proteins were detected by incubation with a fluorescently labeled antibody directed to the fragment crystallizable (Fc) region of the proteins. Bound proteins were analyzed by flow cytometry and the EC50 values were calculated from non-linear regression analysis using GraphPad Prism.

[3] = target: T3, human delta-like ligand 3 (DLL3) (human, UniProt Q9NYJ7 27-618); experiment: flow cytometry, on-cell binding to CHO cells stably expressing human DLL3, anti-Fc detection
T3 construct: whole, on cells; also called Human DLL3; huDLL3
T3 sequence (looked up): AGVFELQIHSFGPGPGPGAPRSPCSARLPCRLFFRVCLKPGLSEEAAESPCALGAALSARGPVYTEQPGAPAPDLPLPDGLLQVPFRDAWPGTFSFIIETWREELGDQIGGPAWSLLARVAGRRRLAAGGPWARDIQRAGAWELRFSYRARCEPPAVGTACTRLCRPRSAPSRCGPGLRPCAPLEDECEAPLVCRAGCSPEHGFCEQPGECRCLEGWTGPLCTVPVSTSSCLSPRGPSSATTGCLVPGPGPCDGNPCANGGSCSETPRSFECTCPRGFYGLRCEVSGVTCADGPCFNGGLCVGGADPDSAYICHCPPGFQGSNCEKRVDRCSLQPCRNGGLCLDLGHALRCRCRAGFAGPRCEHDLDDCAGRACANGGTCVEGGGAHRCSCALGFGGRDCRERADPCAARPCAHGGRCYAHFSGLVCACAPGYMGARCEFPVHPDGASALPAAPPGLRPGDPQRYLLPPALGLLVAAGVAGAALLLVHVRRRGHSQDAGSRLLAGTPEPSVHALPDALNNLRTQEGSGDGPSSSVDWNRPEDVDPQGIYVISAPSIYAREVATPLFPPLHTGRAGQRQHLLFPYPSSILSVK
Protocol: as §1

[4] = target: T3, human delta-like ligand 3 (DLL3); experiment: cell-based or functional assay
cynomolgus monkey DLL3 [5] = target: T2, cynomolgus monkey DLL3; experiment: cell-based or functional assay

T1 sequence (P07766 22-48 limits assumed): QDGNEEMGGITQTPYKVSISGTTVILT

B1: DLL3_2 hetero IgG (SEFL2)(YTE) (bispecific antibody)
heavy 1: not shown
light 1: DIVMTQTPLSLSVTPGQPASISCKSSQSLLHSDGKTFLYWYLQKPGQPPQLLIYEVSNRFSGVPDRFSGSGSGTDFTLKISRVEAEDVGVYYCLQGIHLPFTFGPGTKVEIKRTVAAPSVFIFPPSDEQLKSGTASVVCLLNNFYPREAKVQWKVDNALQSGNSQESVTEQDSKDSTYSLESTLTLSKADYEKHKVYACEVTHQGLSSPVTKSFNRGEC
heavy 2: EVQLVESGGGLVQPGGSLKLSCAASGFTFNKYAINWVRQAPGKGLEWVARIRSKYNNYATYYADAVKDRFTISRDDSKNTVYLQMNNLKTEDTAVYYCARAENIGTSYISYWAYWGQGTLVTVSSASTKGPSVFPLAPSSKSTSGGTAALGCLVKDYFPEPVTVSWNSGALTSGVHTFPAVLQSSGLYSLESVVTVPSSSLGTQTYICNVNHKPSNTKVDKKVEPKSCDKTHTCPPCPAPELLGGPSVFLFPPKPKDTLYITREPEVTCVVVDVSHEDPEVKFNWYVDGVEVHNAKTKPCEEQYGSTYRCVSVLTVLHQDWLNGKEYKCKVSNKALPAPIEKTISKAKGQPREPQVYTLPPSRKEMTKNQVSLTCLVKGFYPSDIAVEWESNGQPENNYKTTPPVLKSDGSFFLYSKLTVDKSRWQQGNVFSCSVMHEALHNHYTQKSLSLSPGK
light 2: not shown
Q: Which Kd [1] does the source give for B1 here?
A: 7840 pM

Q: What about the EC50 (cynomolgus monkey DLL3 [2]) of the same binder?
A: 40 pM

Q: And the EC50 [3]?
A: 35 pM

Q: What about the “T cell dependent cellular cytotoxicity (TDCC) EC50, CHO-huDLL3” value [4] of the same binder?
A: 100 pM

Q: And the “T cell dependent cellular cytotoxicity (TDCC) EC50, CHO-cyno DLL3” value (cynomolgus monkey DLL3 [5])?
A: 22.7 pM
